Measurements published in US12466878 (dated 2025).

Target: HLA-A*02:01 (human;)
Test: ELISA

Binder: KIQEILTQV [IGF2BP3-001 peptide KIQEILTQV (SEQ ID NO: 1)]
- Kd: 0.874 nM
